For two compounds, pKa and Kd results are on record in PMC8307938, “The Lysozyme Inhibitor Thionine Acetate Is Also an Inhibitor of the Soluble Lytic Transglycosylase Slt35 from Escherichia coli” (Molecules, 2021).

One data set deals with Asp52 (UniProt position 70, TDGSTDYGILQ). Put plainly: NMR. The conditions noted are these: not stated (presumably free, folded enzyme); cited from earlier work.
A further data set concerns the target Glu35 (UniProt position 53, CAAKFESNFNT). Put plainly: NMR. The conditions noted are these: not stated (presumably free, folded enzyme); cited from earlier work.
In a further data set the target is T1, Slt35 (Escherichia coli, UniProt P41052).
T1 construct: gene mltB; N-terminal His-tag
T1 sequence (P41052 19-361): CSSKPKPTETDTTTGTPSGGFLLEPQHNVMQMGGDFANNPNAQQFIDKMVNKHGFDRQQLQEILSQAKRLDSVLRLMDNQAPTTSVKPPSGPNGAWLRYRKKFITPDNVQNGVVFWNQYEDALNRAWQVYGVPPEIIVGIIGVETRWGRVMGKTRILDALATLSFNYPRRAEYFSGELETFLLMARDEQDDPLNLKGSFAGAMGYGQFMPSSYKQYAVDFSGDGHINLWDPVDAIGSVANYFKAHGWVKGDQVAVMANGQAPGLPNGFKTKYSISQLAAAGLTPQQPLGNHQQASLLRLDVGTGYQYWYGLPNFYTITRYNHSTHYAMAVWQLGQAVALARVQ
Put plainly: intrinsic fluorescence quenching titration (also turbidimetric inhibition assay, IC50 […]). The format is binding.

Another data set deals with T2, hen egg white lysozyme (Gallus gallus, UniProt P00698).
T2 construct: gene LYZ
T2 sequence (P00698 19-147): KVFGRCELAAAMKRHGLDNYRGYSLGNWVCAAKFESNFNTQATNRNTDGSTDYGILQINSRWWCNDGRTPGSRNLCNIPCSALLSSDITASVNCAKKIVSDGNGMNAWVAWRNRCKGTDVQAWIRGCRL
The data set is described as above. It counts as binding.

As a reminder, the pKa is the negative logarithm of the acid dissociation constant. Consider “Hen egg white lysozyme (lysozyme C) (Gallus gallus)”, for which the pKa was 3.7 with Asp52 and 6.2 with Glu35.
By Kd is commonly meant the constant that tells how readily two partners part at equilibrium. Take `Nc1ccc2nc3ccc(N)cc3[s+]c2c1` [thionine acetate]: the Kd worked out at 17.1 ± 1 µM at Slt35 and 18.6 ± 1.2 µM at hen egg white lysozyme.
